Results on one molecule are retold here after patent US20240052061A1 (PURINOMIA BIOTECH, published 2024).

The target of assay [1] is T1, human ecto-nucleoside triphosphate diphosphohydrolase-3 (NTPDase3) (human, UniProt O75355 1-529).
T1 sequence (looked up): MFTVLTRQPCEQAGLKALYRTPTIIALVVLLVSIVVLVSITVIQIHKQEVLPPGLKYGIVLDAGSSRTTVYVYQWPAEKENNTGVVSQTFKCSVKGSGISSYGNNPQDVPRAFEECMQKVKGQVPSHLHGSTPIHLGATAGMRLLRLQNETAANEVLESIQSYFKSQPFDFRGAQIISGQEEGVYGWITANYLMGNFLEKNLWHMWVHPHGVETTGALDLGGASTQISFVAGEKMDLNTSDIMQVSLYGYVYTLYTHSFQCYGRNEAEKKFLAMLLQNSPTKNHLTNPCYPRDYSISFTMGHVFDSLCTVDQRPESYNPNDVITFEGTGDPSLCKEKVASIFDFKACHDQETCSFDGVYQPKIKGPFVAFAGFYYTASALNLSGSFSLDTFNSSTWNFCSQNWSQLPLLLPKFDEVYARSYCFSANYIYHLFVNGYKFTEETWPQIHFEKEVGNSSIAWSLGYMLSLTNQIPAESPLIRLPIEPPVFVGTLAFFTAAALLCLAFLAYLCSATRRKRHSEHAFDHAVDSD
Description: cell-based or functional assay.

Assay [2] deals with T1, human ecto-nucleoside triphosphate …. Description: cell-based or functional assay. This is another data set of the same source.
For assay [3] the target is unchanged. Description: flow cytometry on CHO-hENTPD3 cells, 2 hours at 37 °C (FIG. 19). An excerpt:
(§1) FIG. 19. Affinity of the fully human anti-hENTPD3 monoclonal antibody PBI #30 hIgG1 measured by flow cytometry using CHO-hENTPD3 and COS7-hENTPD3 cells. Generally, FIG. 19 and following are directed to analyses of anti-hENTPD3 monoclonal antibody clones that have been further optimized exemplary (e.g., affinity maturation and isotype switching for PBI #30 and humanization of 8E1 and 38D5) and related detection methods.

For assay [4] the target is unchanged. Description: flow cytometry on CHO-hENTPD3 cells, 30 minutes at 4 °C (FIG. 1). The procedure:
FIG. 1. Affinity of PBI #30 measured by flow cytometry using human ENTPD3 (hENTPD3) positive CHO cells (stably transfected cells). PBI #30 was serially diluted as indicated (top dose 333 nM) and incubated with CHO-hENTPD3 cells for 30 minutes at 4° C., followed by secondary antibody staining (anti-human IgG (Fc specific), Alexa Fluor® 488) for 30 minutes at 4° C. and flow cytometry analysis.
Background: A flow cytometer gives signals particle by particle.

For assay [5] the target is unchanged. Description: flow cytometry on COS7-hENTPD3 cells, 2 hours at 37 °C (FIG. 19).
Text: as §1

For assay [6] the target is unchanged. Description: flow cytometry on COS7-hENTPD3 cells, 30 minutes at 4 °C (FIG. 2). The text has this:
FIG. 2. Affinity of PBI #30 measured by flow cytometry using hENTPD3 positive COS-7 cells (stably transfected cells).

Assay [7] shares this target. Description: flow cytometry on HEK293T-hENTPD3 cells, 30 minutes at 4 °C (FIG. 3). The text has this: FIG. 3. Affinity of PBI #30 measured by flow cytometry using hENTPD3 positive HEK293T cells (stably transfected cells).
Assay [8] has the same target. Description: flow cytometry on RT4 bladder cancer cells (endogenous hENTPD3), 30 minutes at 4 °C (FIG. 4). An excerpt: FIG. 4. Affinity of PBI #30 measured by flow cytometry using RT4 bladder cancer cells that endogenously express hENTPD3.

B1: PBI #30 hIgG1 (antibody, V domains shown)
VH: QVQLQESGGGLIQPGGSLRLSCAASGFTSSSSDYAMSWVRQAPGKGLEWVSSISGSGGSTYYADSVKGRFTISRDNSKNTLYVQMTSLTAEDTAVYYCAKVVGYSMYDYYYHYALDVWGQGTTVTVSS
VL: QPVLTQPPSASGTPGQRVTISCSGSSSNIGSNTVNWYQQLPGTAPKLLIYSNNQRPSGVPDRFSGSKSGTSASLTISGLKTEDEAGYYCQSYDTSNVVFGGGTKVTVLG
notes: Fully human IgG1; also called clone PBI #30; original clone PBI #30 hIgG1
The term Kd denotes the constant that tells how readily two partners part at equilibrium. Turning to B1, the “ADCC EC50, NFAT luciferase reporter Jurkat/hCD16a-158V” value in assay [1] stood at 0.092 µg/mL. For the same molecule, the “EC50 of hENTPD3 enzyme activity inhibition, CHO-hENTPD3 cells, antibody 30 minutes” value in assay [1] stood at 17.3 µg/mL. In addition, in assay [2], the “ADCC EC50 (µg/mL), NFAT luciferase reporter Jurkat/hCD16a-158V” value turned out to be 1.44 µg/mL. Further, the “Enzyme Activity Inhibition Capacity: % of Maximal Inhibition” value in assay [2] is 76%. Moreover, the “Enzyme Activity Inhibition Capacity: EC50” value in assay [2] was found to be 2.51 µg/mL. In addition, the Kd is 2.96 nM in assay [3]; 5.53 nM in assay [4]; 1.82 nM in assay [5]; 11.9 nM in assay [6]; 8.4 nM in assay [7]; 10.1 nM in assay [8].
